± gives the standard deviation of the averaged measurements.
Tested on: ATP
Assay: switch fluorescence ratio, 500 uM ATP over buffer (Cy3 cluster intensity, sum of 5 cycles each) (fold (ratio)); higher = stronger signal-on switching upon ATP binding; sequences stand for … in TCGTCGGCAGCGTCAGATGTGTATAAGAGACAGTTTTTTTTTTTTTTTTTTTTTTTTT…TC
Conditions: aptamer strand: ATP DNA aptamer (quencher-CACCTGGGGGAGTATTGCGGAGGAAGG + anchor), 100 nM annealed; ATP concentration: 500 uM
How it was run: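 The fluorescence ratio divides summed target-cycle Cy3 intensity by summed buffer-cycle Cy3 intensity for each cluster and is averaged per switch-domain sequence. Cy3-labelled switching-strand clusters on a modified Illumina MiSeq flow-cell were annealed to 100 nM quencher-labelled ATP aptamer, then imaged in selection buffer and again after 15 min with 500 uM ATP at 22 °C. Five such cycles were run, with NaOH stripping and re-annealing between them, and clusters outside 100-1000 RFU were excluded.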
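Note: ATP exposure 15 min at 22 °C before imaging.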

**Q.** Which switch fluorescence ratio does the source give for GGGGGCATGA here?
**A.** 0.966 ± 0.015

**Q.** Which switch fluorescence ratio does the source give for GGGGGCCGTC here?
**A.** 1.01 ± 0.09

**Q.** For GGGGGCCTTT, which switch fluorescence ratio is on record?
**A.** 0.995 ± 0.02

**Q.** With GGGGGCGAAT as the sequence, how does the switch fluorescence ratio read?
**A.** 1.01 ± 0.011

**Q.** Which switch fluorescence ratio does the source give for GGGGGCGCAA here?
**A.** 1.129 ± 0.011

**Q.** With GGGGGCGGGG as the sequence, how does the switch fluorescence ratio read?
**A.** 1.01 ± 0.03

**Q.** How did the switch fluorescence ratio turn out when GGGGGCGGTC was run?
**A.** 0.997 ± 0.023

**Q.** How did the switch fluorescence ratio turn out when GGGGGCGTCA was run?
**A.** 1.02 ± 0.017

**Q.** For GGGGGCTAGT, which switch fluorescence ratio is on record?
**A.** 0.991 ± 0.056

**Q.** With GGGGGCTGAA as the sequence, how does the switch fluorescence ratio read?
**A.** 0.985 ± 0.027

**Q.** For GGGGGCTTAC, which switch fluorescence ratio is on record?
**A.** 1.01 ± 0.021

**Q.** How did the switch fluorescence ratio turn out when GGGGGGAAAA was run?
**A.** 0.986 ± 0.025

**Q.** GGGGGGAACA was tested. Which switch fluorescence ratio did it give?
**A.** 1.01 ± 0.029

**Q.** With GGGGGGAAGG as the sequence, how does the switch fluorescence ratio read?
**A.** 1.01 ± 0.03

**Q.** Which switch fluorescence ratio does the source give for GGGGGGACAG here?
**A.** 1 ± 0.037

**Q.** GGGGGGACCT was tested. Which switch fluorescence ratio did it give?
**A.** 1.06 ± 0.043

**Q.** GGGGGGACTG was tested. Which switch fluorescence ratio did it give?
**A.** 1.06 ± 0.077

**Q.** For GGGGGGAGAA, which switch fluorescence ratio is on record?
**A.** 1.01 ± 0.039

**Q.** With GGGGGGAGAT as the sequence, how does the switch fluorescence ratio read?
**A.** 1.04 ± 0.077

**Q.** With GGGGGGAGCG as the sequence, how does the switch fluorescence ratio read?
**A.** 1 ± 0.021

**Q.** GGGGGGATAA was tested. Which switch fluorescence ratio did it give?
**A.** 1.08 ± 0.21

**Q.** For GGGGGGATAT, which switch fluorescence ratio is on record?
**A.** 1.05 ± 0.097

**Q.** For GGGGGGATTT, which switch fluorescence ratio is on record?
**A.** 1.02 ± 0.063

**Q.** For GGGGGGCCAT, which switch fluorescence ratio is on record?
**A.** 1.01 ± 0.025

**Q.** For GGGGGGCGAC, which switch fluorescence ratio is on record?
**A.** 1.02 ± 0.019

**Q.** With GGGGGGCGTG as the sequence, how does the switch fluorescence ratio read?
**A.** 0.993 ± 0.027

**Q.** For GGGGGGCTTG, which switch fluorescence ratio is on record?
**A.** 1.02 ± 0.043

**Q.** Which switch fluorescence ratio does the source give for GGGGGGGAAA here?
**A.** 0.99 ± 0.035

**Q.** How did the switch fluorescence ratio turn out when GGGGGGGACG was run?
**A.** 0.962 ± 0.055

**Q.** How did the switch fluorescence ratio turn out when GGGGGGGAGA was run?
**A.** 1.02 ± 0.029

**Q.** Which switch fluorescence ratio does the source give for GGGGGGGCGC here?
**A.** 1.02 ± 0.035

**Q.** With GGGGGGGGC as the sequence, how does the switch fluorescence ratio read?
**A.** 0.989 ± 0.061

**Q.** GGGGGGGGCA was tested. Which switch fluorescence ratio did it give?
**A.** 0.985 ± 0.024

**Q.** Which switch fluorescence ratio does the source give for GGGGGGGGCT here?
**A.** 1 ± 0.045

**Q.** Which switch fluorescence ratio does the source give for GGGGGGGGGT here?
**A.** 1.01 ± 0.038

**Q.** For GGGGGGGTGG, which switch fluorescence ratio is on record?
**A.** 1 ± 0.033

**Q.** GGGGGGGTTA was tested. Which switch fluorescence ratio did it give?
**A.** 0.992 ± 0.025

**Q.** How did the switch fluorescence ratio turn out when GGGGGGTCCA was run?
**A.** 1.01 ± 0.023

**Q.** How did the switch fluorescence ratio turn out when GGGGGGTCGA was run?
**A.** 1 ± 0.021

**Q.** Which switch fluorescence ratio does the source give for GGGGGGTCTA here?
**A.** 1.02 ± 0.024

**Q.** How did the switch fluorescence ratio turn out when GGGGGGTGTG was run?
**A.** 0.986 ± 0.025

**Q.** With GGGGGGTTAT as the sequence, how does the switch fluorescence ratio read?
**A.** 0.993 ± 0.026

**Q.** For GGGGGTAACT, which switch fluorescence ratio is on record?
**A.** 1 ± 0.034

**Q.** Which switch fluorescence ratio does the source give for GGGGGTACGA here?
**A.** 1.01 ± 0.052

**Q.** How did the switch fluorescence ratio turn out when GGGGGTAGAC was run?
**A.** 1.01 ± 0.026

**Q.** GGGGGTAGCA was tested. Which switch fluorescence ratio did it give?
**A.** 1.05 ± 0.077

**Q.** With GGGGGTAGCG as the sequence, how does the switch fluorescence ratio read?
**A.** 1.02 ± 0.028

**Q.** GGGGGTAGGG was tested. Which switch fluorescence ratio did it give?
**A.** 1.03 ± 0.073

**Q.** With GGGGGTAGTT as the sequence, how does the switch fluorescence ratio read?
**A.** 1 ± 0.032

**Q.** Which switch fluorescence ratio does the source give for GGGGGTATGA here?
**A.** 1.02 ± 0.022

**Q.** How did the switch fluorescence ratio turn out when GGGGGTCATT was run?
**A.** 0.9511 ± 0.0024

**Q.** Which switch fluorescence ratio does the source give for GGGGGTCGC here?
**A.** 1 ± 0.065

**Q.** With GGGGGTCGGA as the sequence, how does the switch fluorescence ratio read?
**A.** 1.03 ± 0.043

**Q.** Which switch fluorescence ratio does the source give for GGGGGTGCGA here?
**A.** 1.01 ± 0.026

**Q.** Which switch fluorescence ratio does the source give for GGGGGTGCTC here?
**A.** 1.01 ± 0.023

**Q.** Which switch fluorescence ratio does the source give for GGGGGTGGAG here?
**A.** 1 ± 0.041

**Q.** Which switch fluorescence ratio does the source give for GGGGGTGGCC here?
**A.** 0.952 ± 0.098

**Q.** Which switch fluorescence ratio does the source give for GGGGGTGGTA here?
**A.** 0.99 ± 0.045

**Q.** For GGGGGTGGTT, which switch fluorescence ratio is on record?
**A.** 0.99 ± 0.037

**Q.** Which switch fluorescence ratio does the source give for GGGGGTGTTC here?
**A.** 0.991 ± 0.028

**Q.** For GGGGGTGTTG, which switch fluorescence ratio is on record?
**A.** 1 ± 0.04

**Q.** For GGGGGTTATG, which switch fluorescence ratio is on record?
**A.** 1.01 ± 0.024

**Q.** For GGGGGTTATT, which switch fluorescence ratio is on record?
**A.** 0.989 ± 0.051

**Q.** How did the switch fluorescence ratio turn out when GGGGGTTCAT was run?
**A.** 0.979 ± 0.013

**Q.** GGGGGTTTTC was tested. Which switch fluorescence ratio did it give?
**A.** 1.01 ± 0.04

**Q.** Which switch fluorescence ratio does the source give for GGGGTAAAAT here?
**A.** 1.01 ± 0.035

**Q.** How did the switch fluorescence ratio turn out when GGGGTAAACA was run?
**A.** 0.99 ± 0.038

**Q.** How did the switch fluorescence ratio turn out when GGGGTAACGG was run?
**A.** 0.987 ± 0.036

**Q.** With GGGGTAAGAC as the sequence, how does the switch fluorescence ratio read?
**A.** 1.02 ± 0.036

**Q.** Which switch fluorescence ratio does the source give for GGGGTAAGCG here?
**A.** 0.978 ± 0.033

**Q.** Which switch fluorescence ratio does the source give for GGGGTAAGCT here?
**A.** 0.998 ± 0.023

**Q.** Which switch fluorescence ratio does the source give for GGGGTAATGC here?
**A.** 1.34 ± 0.18

**Q.** For GGGGTACCCA, which switch fluorescence ratio is on record?
**A.** 0.993 ± 0.018

**Q.** For GGGGTAGAAA, which switch fluorescence ratio is on record?
**A.** 0.969 ± 0.013

**Q.** How did the switch fluorescence ratio turn out when GGGGTAGAGT was run?
**A.** 0.98 ± 0.017

**Q.** For GGGGTAGATA, which switch fluorescence ratio is on record?
**A.** 1.01 ± 0.012

**Q.** With GGGGTAGCGC as the sequence, how does the switch fluorescence ratio read?
**A.** 0.974 ± 0.018

**Q.** GGGGTAGCTG was tested. Which switch fluorescence ratio did it give?
**A.** 0.962 ± 0.012

**Q.** Which switch fluorescence ratio does the source give for GGGGTAGGCA here?
**A.** 0.9742 ± 0.0033

**Q.** GGGGTAGTTA was tested. Which switch fluorescence ratio did it give?
**A.** 0.9743 ± 0.0066

**Q.** Which switch fluorescence ratio does the source give for GGGGTATACT here?
**A.** 1.021 ± 0.0052

**Q.** Which switch fluorescence ratio does the source give for GGGGTATAGG here?
**A.** 0.9746 ± 0.008

**Q.** For GGGGTATATG, which switch fluorescence ratio is on record?
**A.** 0.995 ± 0.027

**Q.** GGGGTATGGA was tested. Which switch fluorescence ratio did it give?
**A.** 0.989 ± 0.023

**Q.** For GGGGTATTAG, which switch fluorescence ratio is on record?
**A.** 0.991 ± 0.03

**Q.** With GGGGTCAAGC as the sequence, how does the switch fluorescence ratio read?
**A.** 1.01 ± 0.03

**Q.** With GGGGTCAGCG as the sequence, how does the switch fluorescence ratio read?
**A.** 0.974 ± 0.012

**Q.** With GGGGTCAGGA as the sequence, how does the switch fluorescence ratio read?
**A.** 1.03 ± 0.029

**Q.** GGGGTCCGGT was tested. Which switch fluorescence ratio did it give?
**A.** 1.06 ± 0.14

**Q.** GGGGTCGGCT was tested. Which switch fluorescence ratio did it give?
**A.** 0.974 ± 0.077

**Q.** With GGGGTCGGGG as the sequence, how does the switch fluorescence ratio read?
**A.** 1.03 ± 0.041

**Q.** GGGGTCTACC was tested. Which switch fluorescence ratio did it give?
**A.** 0.974 ± 0.014

**Q.** For GGGGTGAGCT, which switch fluorescence ratio is on record?
**A.** 0.981 ± 0.03

**Q.** For GGGGTGAGTA, which switch fluorescence ratio is on record?
**A.** 0.98 ± 0.053

**Q.** How did the switch fluorescence ratio turn out when GGGGTGCCGG was run?
**A.** 0.977 ± 0.092

**Q.** Which switch fluorescence ratio does the source give for GGGGTGGAAT here?
**A.** 1.03 ± 0.012

**Q.** For GGGGTGGCGC, which switch fluorescence ratio is on record?
**A.** 0.964 ± 0.036

**Q.** For GGGGTGGCTG, which switch fluorescence ratio is on record?
**A.** 0.955 ± 0.023

**Q.** Which switch fluorescence ratio does the source give for GGGGTGGGAA here?
**A.** 0.9795 ± 0.0094

**Q.** Which switch fluorescence ratio does the source give for GGGGTGGGAC here?
**A.** 1.044 ± 0.006
